Data taken from the supplement of paper PMC9112550, “Optimization of the antimicrobial peptide Bac7 by deep mutational scanning” (BMC Biology, 2022).

Tested on: Escherichia coli TOP10
Test: shrunken log2 fold change of peptide-encoding DNA abundance (4.5 h post-induction vs induction); higher = less antimicrobial activity (less host growth inhibition)
Conditions: time post-induction: 4.5 h; library: site-saturation at positions 5, 18, 19, 20
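Further: peptides expressed intracellularly from a pBAD plasmid library in pooled LB shake-flask culture, induced with 0.3% L-arabinose, DNA abundance read by NGS, three biological replicates, DESeq2 with apeglm shrinkage.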

| Sequence | shrunken log2 fold change |
| --- | --- |
| RRIRTRPPRLPRPRPRPKSAPRP | 0.221 |
| RRIRNRPPRLPRPRPRPETKPRP | 0.384 |
| RRIRLRPPRLPRPRPRPMFMPRP | -0.208 |
| RRIRMRPPRLPRPRPRPPTPPRP | 1.66 |
| RRIRNRPPRLPRPRPRPCGGPRP | -0.0209 |
| RRIRARPPRLPRPRPRPLFKPRP | 0.117 |
| RRIRSRPPRLPRPRPRPHFRPRP | -0.197 |
| RRIRDRPPRLPRPRPRPGWTPRP | 0.379 |
| RRIRYRPPRLPRPRPRPHEAPRP | -0.215 |
| RRIRARPPRLPRPRPRPVHSPRP | 0.0799 |
| RRIRVRPPRLPRPRPRPYRDPRP | -0.278 |
| RRIRIRPPRLPRPRPRPAGYPRP | -0.038 |
| RRIRTRPPRLPRPRPRPWREPRP | -0.00743 |
| RRIRYRPPRLPRPRPRPFTMPRP | -0.558 |
| RRIRDRPPRLPRPRPRPIPVPRP | -0.00774 |
| RRIRPRPPRLPRPRPRPCRVPRP | -0.309 |
| RRIRLRPPRLPRPRPRPTAWPRP | 0.222 |
| RRIRHRPPRLPRPRPRPMLTPRP | 0.0372 |
| RRIRWRPPRLPRPRPRPAPGPRP | 0.634 |
| RRIRERPPRLPRPRPRPVEEPRP | -0.127 |
| RRIRMRPPRLPRPRPRPDSNPRP | 0.754 |

| Sequence | shrunken log2 fold change |
| --- | --- |
| RRIRYRPPRLPRPRPRPPLNPRP | -0.228 |
| RRIRWRPPRLPRPRPRPEFPPRP | 0.0195 |
| RRIRCRPPRLPRPRPRPQRYPRP | -0.105 |
| RRIRPRPPRLPRPRPRPFIMPRP | -0.426 |
| RRIRQRPPRLPRPRPRPPMVPRP | -0.0885 |
| RRIRQRPPRLPRPRPRPVNMPRP | 0.0206 |
| RRIRYRPPRLPRPRPRPADAPRP | 0.0896 |
| RRIRWRPPRLPRPRPRPLNRPRP | -0.274 |
| RRIRYRPPRLPRPRPRPHTVPRP | -1.21 |
| RRIRMRPPRLPRPRPRPDWAPRP | 0.469 |
| RRIRFRPPRLPRPRPRPMDEPRP | 0.0137 |
| RRIRFRPPRLPRPRPRPLREPRP | 0.618 |
| RRIRFRPPRLPRPRPRPELSPRP | 0.0455 |
| RRIRNRPPRLPRPRPRPDQLPRP | 0.0418 |
| RRIRERPPRLPRPRPRPDWAPRP | 0.0306 |
| RRIRFRPPRLPRPRPRPVTMPRP | -0.295 |
| RRIRQRPPRLPRPRPRPNTMPRP | 0.12 |
| RRIRHRPPRLPRPRPRPAIPPRP | -0.112 |
| RRIRPRPPRLPRPRPRPRWIPRP | 0.157 |
| RRIRQRPPRLPRPRPRPIVFPRP | 0.161 |
| RRIRLRPPRLPRPRPRPNLWPRP | 0.321 |

| Sequence | shrunken log2 fold change |
| --- | --- |
| RRIRVRPPRLPRPRPRPDEMPRP | 0.0261 |
| RRIRWRPPRLPRPRPRPFENPRP | -0.15 |
| RRIRRRPPRLPRPRPRPHNSPRP | 0.0175 |
| RRIRSRPPRLPRPRPRPHIIPRP | -0.443 |
| RRIRRRPPRLPRPRPRPRQKPRP | 0.857 |
| RRIRVRPPRLPRPRPRPMRWPRP | 0.0506 |
| RRIRKRPPRLPRPRPRPGDRPRP | 0.886 |
| RRIRSRPPRLPRPRPRPSWDPRP | 0.364 |
| RRIRPRPPRLPRPRPRPVAFPRP | -0.0622 |
| RRIRTRPPRLPRPRPRPSMVPRP | -0.0429 |
| RRIRDRPPRLPRPRPRPSVNPRP | 0.0833 |
| RRIRMRPPRLPRPRPRPTSGPRP | 1.06 |
| RRIRRRPPRLPRPRPRPRVGPRP | 0.68 |
| RRIRGRPPRLPRPRPRPYGAPRP | -0.00762 |
| RRIRPRPPRLPRPRPRPRCEPRP | 0.809 |
| RRIRIRPPRLPRPRPRPPKPPRP | 0.0539 |
| RRIRERPPRLPRPRPRPHPPPRP | 0.16 |
| RRIRRRPPRLPRPRPRPILWPRP | 0.0428 |
| RRIRLRPPRLPRPRPRPDDEPRP | -0.0861 |
| RRIRIRPPRLPRPRPRPDIAPRP | -0.659 |
